Experimental data taken from paper PMC6351565.

How the values were obtained:
[1] = biological target: M2345/WT IRSp53 heterodimer (human (from the printed UniProt entry)) (UniProt Q9UQB8); experiment: co-IP; homo- and heterodimers of wild-type and M2345 IRSp53 (FLAG and STREP tags, single plasmid with IRES) from HEK293T cells; endogenous 14-3-3 detected by blot, relative to WT-IRSp53-FLAG/WT-IRSp53-STREP
[2] = biological target: WT/M2345 IRSp53 heterodimer (human (from the printed UniProt entry)) (UniProt Q9UQB8); experiment: as above
WT/M2345 IRSp53 heterodimer (human, sequence (Q9UQB8 other isoform, or with tags, fused parts or gaps T340A | T360A | S366A | 452SSST455 -> AAAA, chain 1 of 2): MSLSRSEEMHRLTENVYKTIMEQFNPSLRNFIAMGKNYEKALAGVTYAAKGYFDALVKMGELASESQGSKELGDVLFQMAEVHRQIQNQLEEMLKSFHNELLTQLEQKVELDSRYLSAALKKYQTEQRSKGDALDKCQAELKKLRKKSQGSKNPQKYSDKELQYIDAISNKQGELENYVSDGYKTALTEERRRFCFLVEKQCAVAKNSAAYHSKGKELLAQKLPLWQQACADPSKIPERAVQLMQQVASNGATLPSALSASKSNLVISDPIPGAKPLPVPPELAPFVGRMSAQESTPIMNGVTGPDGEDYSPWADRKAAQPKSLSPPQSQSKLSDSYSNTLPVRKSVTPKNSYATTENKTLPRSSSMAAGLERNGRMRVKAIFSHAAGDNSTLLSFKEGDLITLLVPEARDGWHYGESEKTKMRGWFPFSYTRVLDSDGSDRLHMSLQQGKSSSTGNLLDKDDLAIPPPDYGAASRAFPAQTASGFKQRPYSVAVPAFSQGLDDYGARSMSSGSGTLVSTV
WT/M2345 IRSp53 heterodimer (human, sequence (Q9UQB8 other isoform, or with tags, fused parts or gaps, chain 2 of 2): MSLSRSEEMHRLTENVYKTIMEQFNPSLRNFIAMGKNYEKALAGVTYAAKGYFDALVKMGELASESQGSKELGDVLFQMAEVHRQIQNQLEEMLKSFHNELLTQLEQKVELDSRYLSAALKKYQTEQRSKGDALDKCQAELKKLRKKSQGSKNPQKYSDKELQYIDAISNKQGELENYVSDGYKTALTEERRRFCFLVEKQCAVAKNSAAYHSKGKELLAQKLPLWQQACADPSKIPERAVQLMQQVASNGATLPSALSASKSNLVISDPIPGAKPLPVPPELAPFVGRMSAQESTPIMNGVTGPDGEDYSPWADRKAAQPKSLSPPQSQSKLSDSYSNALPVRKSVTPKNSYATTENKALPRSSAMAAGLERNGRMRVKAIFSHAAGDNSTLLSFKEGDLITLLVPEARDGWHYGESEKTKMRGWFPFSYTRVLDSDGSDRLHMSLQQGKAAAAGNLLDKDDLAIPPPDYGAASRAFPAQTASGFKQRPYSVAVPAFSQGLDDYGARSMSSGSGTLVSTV

endogenous 14-3-3 (all isoforms included), sequence (P27348 whole entry, canonical isoform): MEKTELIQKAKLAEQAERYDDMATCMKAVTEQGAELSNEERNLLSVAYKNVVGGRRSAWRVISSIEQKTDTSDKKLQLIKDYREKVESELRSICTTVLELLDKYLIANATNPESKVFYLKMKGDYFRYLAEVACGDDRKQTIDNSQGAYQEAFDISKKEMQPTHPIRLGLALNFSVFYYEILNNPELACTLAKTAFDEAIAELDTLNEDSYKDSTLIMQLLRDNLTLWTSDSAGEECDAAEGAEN

percent of the amount that coimmunoprecipitates with WT/WT IRSp53 [1]: 50%
percent of the amount that coimmunoprecipitates with WT/WT IRSp53 [2]: 50%
Substance: endogenous 14-3-3 (all isoforms included) (from UniProt P27348 1-245) (natural protein)
